Kd data for 1 substance are collected here from doi:10.1101/2020.05.01.072124.

Assay [1] addresses Recombinant MEK1 (immobilised in SPR) (human) (UniProt Q02750). The experiment in a line: SPR.
The target is the same in assay [2]. The experiment in a line: SPR. The source holds these as a separate data set. Background: SPR reads the build-up and loss of mass on a sensor chip optically.

Read-outs that look alike come from different tables or passages of the source.

For “HIS-CCS (copper chaperone for superoxide dismutase) (from UniProt O14618 1-274) (natural protein)”, the Kd (as a rule, the equilibrium constant for the complex coming apart) in assay [1] stood at 2.09 µM; in assay [2], 8 µM.
